US6624139B1, “Hypersensitive response elicitor-induced stress resistance” (Eden Bioscience Corporation, priority 1998, dated 2003)
Substitutions are numbered along the chain they refer to. Values joined by “and” are separate entries in the source; they are usually repeats but may differ in a detail not shown here. Equal entries are not always repeated.

How the values were obtained:
[1] = test system: Aphids (Aphids gossypii); experiment: Aphid count per leaf on cotton, field trial; type: in vivo
Excerpt: (§1) Aphids (Aphids gossypii) infect cotton during the entire growth season. The damage of aphid infection ranges from honeydew deposit that contaminates the lint and reduces crop value to defoliation that reduces or destroys crops. To protect plants from aphid infection, cotton is usually sprayed with insecticides, for example Asana XL when the infection pressure is not very high, and Admire when the infestation pressure is high. The effect of a hypersensitive response elicitor on aphids in cotton was studied by a trial involving a randomized complete block design. This involved treatment with Erwinia amylovora hypersensitive response elicitor (i.e. HP-100™) at 20, 60, and 80 ppm and a chemical insecticide, Asana XL, at 8 oz./ac. Each treatment involved foliar application beginning at cotyledon to three true leaves and thereafter at 14 day intervals using a backpack sprayer. Aphid counts and overall growth of the cotton were made immediately prior to spray application at 14, 28, 35, and 42 days after the first treatment (“DAT 1”). Twenty-five randomly selected leaves per plot were collected at the first three sampling dates and the leaves per plot at the final sampling date.

[2] = test system: cotton; experiment: Insecticide stress tolerance of cotton (defoliation, formed cotton balls); type: in vivo
Excerpt: as §1
2. Hypersensitive response elicitor-treated cotton was more resistant to the damage caused by Pravado (Admire) and Asana. […]

[3] = test system: cucumber; experiment: Cucumber field trial under drought (survival, flowering, yield); type: in vivo; parameters: Yield/Replicate: unit not given beside the values; conditions: for Yield summed over the three replicates: control 39.3; for Yield/Replicate / kg/plant: replicates I-III; for % of the Yield Increase: versus control; for kg/plant: cucumber fruit yield
Experimental: A cucumber field trial was set up to test the effect of Erwinia amylovora hypersensitive response elicitor on disease control, tolerance to drought stress, and yield. Three different rates were tested, there at 15, 30, and 60 μg/ml. In addition to hypersensitive response elicitor treatment, there was an untreated control. Each treatment contained three replicate plots. When the first true leaf emerges, hypersensitive response elicitor was sprayed with a back bag sprayer. The second spray was applied ten days after the first spray. The third application was right after the recovery of cucumber seedlings after the transplanting to the field. Individual treatment was randomly assigned in the field.
When the first true leaf emerged (Day 0), a first application was sprayed. Usually cucumber seedlings are transplanted when seedlings show two true leaves. It has been known that the recovery rate after the transplanting is closely related to the size of the seedlings. Because of the drought, the seedlings were maintained in the nursery for an extra ten days and the second spray was applied on Day 10. Two days after the second spray, the plants were transplanted into fields and covered with plastic sheets. The plants had 4-5 true leaves.

[4] = test system: pepper; experiment: Pepper tolerance to SENCOR herbicide damage; type: in vivo
Excerpt: Pepper seedlings were drenched with hypersensitive response elicitor at 20 ppm seven days before transplanting, sprayed seven days after the transplanting, and then, sprayed every fourteen days. Standard chemicals, Brave, Maneb, Kocide, and Admire, were used for the rest of the treatment. […] The pepper field was applied with the herbicide SENCOR which is not labeled for pepper. This herbicide is known to cause severe foliar damage to pepper in chemically-treated plants but not with hypersensitive response elicitor-treated plants.
The difference between the adverse effect of the herbicide on the hypersensitive response elicitor and non-hypersensitive response elicitor treated plants is dramatic. […] In contrast, 53 out of the 60 chemically-treated pepper plants had severe damage, 40-57% of the leaves were damaged, and 20 plants were dead. The ability of hypersensitive response elicitors to help crops withstand the phytotoxic effects of a herbicide is very important benefit to in agricultural industry.

[5] = cited from earlier work

B1: HP-1000: Erwinia amylovora hypersensitive response elicitor protein applied to plants by foliar spray or drench (protein, UniProt Q01099 1-403, looked up)
Harpin HrpN: MSLNTSGLGASTMQISIGGAGGNNGLLGTSRQNAGLGGNSALGLGGGNQNDTVNQLAGLLTGMMMMMSMMGGGGLMGGGLGGGLGNGLGGSGGLGEGLSNALNDMLGGSLNTLGSKGGNNTTSTTNSPLDQALGINSTSQNDDSTSGTDSTSDSSDPMQQLLKMFSEIMQSLFGDGQDGTQGSSSGGKQPTEGEQNAYKKGVTDALSGLMGNGLSQLLGNGGLGGGQGGNAGTGLDGSSLGGKGLQNLSGPVDYQQLGNAVGTGIGMKAGIQALNDIGTHSDSSTRSFVNKGDRAMAKEIGQFMDQYPEVFGKPQYQKGPGQEVKTDDKSWAKALSKPDDDGMTPASMEQFNKAKGMIKSAMAGDTGNGNLQARGAGGSSLGIDAMMAGDAINNMALGKLGAA
Number of aphids per leaf ([1]; 20 μg/ml a.i., 1 spray, 14 DAT 1): 0.2 a per leaf
Number of aphids per leaf ([1]; 20 μg/ml a.i., 2 sprays, 28 DAT 1): 7.8 b per leaf
Number of aphids per leaf ([1]; 20 μg/ml a.i., 3 sprays, 35 DAT 1): 22.9 b per leaf
Number of aphids per leaf ([1]; 20 μg/ml a.i., 4 sprays, 42 DAT 1): 322.1 a per leaf
Number of aphids per leaf ([1]; 60 μg/ml a.i., 1 spray, 14 DAT 1): 0.1 a per leaf
Number of aphids per leaf ([1]; 60 μg/ml a.i., 2 sprays, 28 DAT 1): 4.9 b per leaf
Number of aphids per leaf ([1]; 60 μg/ml a.i., 3 sprays, 35 DAT 1): 34.6 b per leaf
Number of aphids per leaf ([1]; 60 μg/ml a.i., 4 sprays, 42 DAT 1): 168.3 a per leaf
Number of aphids per leaf ([1]; 80 μg/ml a.i., 1 spray, 14 DAT 1): 0.0 a per leaf
Number of aphids per leaf ([1]; 80 μg/ml a.i., 2 sprays, 28 DAT 1): 2.7 b per leaf
Number of aphids per leaf ([1]; 80 μg/ml a.i., 3 sprays, 35 DAT 1): 25.8 b per leaf
Number of aphids per leaf ([1]; 80 μg/ml a.i., 4 sprays, 42 DAT 1): 510.2 a per leaf
Defoliation of cotton after second chemical spraying ([2]; after Pravado (Admire) applied to all plots, elicitor especially at 80 ppm): no defoliation
No. balls/10 plants/replicate ([2]; formed cotton balls on ten plants in each of four replicates, after insecticide stress, elicitor at 80 ppm): 35
Yield summed over the three replicates ([3]; 15 μg/ml): 103.8
Yield/Replicate ([3]; 15 μg/ml, listed as HP 15): 37.5 and 30.0 and 36.3
% of the Yield Increase ([3]; 15 μg/ml): 241%
Yield summed over the three replicates ([3]; 30 μg/ml): 133.2
Yield/Replicate ([3]; 30 μg/ml, listed as HP 30): 46.2 and 42.9 and 44.1
% of the Yield Increase ([3]; 30 μg/ml): 339%
Final yield relative to control plants ([3]; 30 ppm): three times greater yield
kg/plant ([3]; 15 μg/ml, listed as HP 15): 1.25 kg/plant and 1.00 kg/plant and 1.21 kg/plant
kg/plant ([3]; 30 μg/ml, listed as HP 30): 1.54 kg/plant and 1.43 kg/plant and 1.47 kg/plant
Start of flowering earlier than untreated control ([3]; drought): 14 days
Cucumber seedlings survived after transplanting ([3]; drought, untreated 57%): More than 80%
Cucumber fruits per plant in the first harvest ([3]; drought, virtually no fruit from untreated control): more than 0.4 kilograms
Number of plants with Damage Rating 1 ([4]; 1 = No damage, 60 plants, SENCOR herbicide, elicitor 20 ppm): 1
Number of plants with Damage Rating 2 ([4]; 2 = 0-20% leaves damaged, 60 plants, SENCOR herbicide): 38
Number of plants with Damage Rating 3 ([4]; 3 = 20-40% leaves damaged, 60 plants, SENCOR herbicide): 17
Number of plants with Damage Rating 4 ([4]; 4 = 40-50% leaves damaged, 60 plants, SENCOR herbicide): 3
Number of plants with Damage Rating 6 ([4]; 6 = More than 75% leaves damaged or entire plant dead, 60 plants, SENCOR herbicide): 0
Plants with only minor damage by the herbicide (damaged leaves less than 20%) ([4]; of 60 plants, SENCOR): Thirty-nine of the 60
Number of plants with Damage Rating 5 ([4]; rating 5 not defined in footnote, 60 plants, SENCOR herbicide): 1
Damage Index % ([4]; sum of rating times number of plants, divided by total plants times 6): 41%

B2: hypersensitive response elicitor polypeptide or protein derived from Erwinia amylovora: hypersensitive response elicitor protein from Erwinia amylovora, amino acid sequence SEQ. ID. No. 3 (protein, listed as Erwinia amylovora)
chain: B1 Harpin HrpN with S281R, D282H, S360R, A361P
Time heat stable at 100° C. [5]: at least 10 minutes
